Reference: IntAct's records for PubMed 20133654

B1: Obscurin-like protein 1 (Homo sapiens), O75147 (parent)
chain: MKASSGDQGSPPCFLRFPRPVRVVSGAEAELKCVVLGEPPPVVVWEKGGQQLAASERLSFPADGAEHGLLLTAALPTDAGVYVCRARNAAGEAYAAAAVTVLEPPASDPELQPAERPLPSPGSGEGAPVFLTGPRSQWVLRGAEVVLTCRAGGLPEPTLYWEKDGMALDEVWDSSHFALQPGRAEDGPGASLALRILAARLPDSGVYVCHARNAHGHAQAGALLQVHQPPESPPADPDEAPAPVVEPLKCAPKTFWVNEGKHAKFRCYVMGKPEPEIEWHWEGRPLLPDRRRLMYRDRDGGFVLKVLYCQAKDRGLYVCAARNSAGQTLSAVQLHVKEPRLRFTRPLQDVEGREHGIAVLECKVPNSRIPTAWFREDQRLLPCRKYEQIEEGTVRRLIIHRLKADDDGIYLCEMRGRVRTVANVTVKGPILKRLPRKLDVLEGENAVLLVETLEAGVEGRWSRDGEELPVICQSSSGHMHALVLPGVTREDAGEVTFSLGNSRTTTLLRVKCVKHSPPGPPILAEMFKGHKNTVLLTWKPPEPAPETPFIYRLERQEVGSEDWIQCFSIEKAGAVEVPGDCVPSEGDYRFRICTVSGHGRSPHVVFHGSAHLVPTARLVAGLEDVQVYDGEDAVFSLDLSTIIQGTWFLNGEELKSNEPEGQVEPGALRYRIEQKGLQHRLILHAVKHQDSGALVGFSCPGVQDSAALTIQESPVHILSPQDRVSLTFTTSERVVLTCELSRVDFPATWYKDGQKVEESELLVVKMDGRKHRLILPEAKVQDSGEFECRTEGVSAFFGVTVQDPPVHIVDPREHVFVHAITSECVMLACEVDREDAPVRWYKDGQEVEESDFVVLENEGPHRRLVLPATQPSDGGEFQCVAGDECAYFTVTITDVSSWIVYPSGKVYVAAVRLERVVLTCELCRPWAEVRWTKDGEEVVESPALLLQKEDTVRRLVLPAVQLEDSGEYLCEIDDESASFTVTVTEPPVRIIYPRDEVTLIAVTLECVVLMCELSREDAPVRWYKDGLEVEESEALVLERDGPRCRLVLPAAQPEDGGEFVCDAGDDSAFFTVTVTAPPERIVHPAARSLDLHFGAPGRVELRCEVAPAGSQVRWYKDGLEVEASDALQLGAEGPTRTLTLPHAQPEDAGEYVCETRHEAITFNVILAEPPVQFLALETTPSPLCVAPGEPVVLSCELSRAGAPVVWSHNGRPVQEGEGLELHAEGPRRVLCIQAAGPAHAGLYTCQSGAAPGAPSLSFTVQVAEPPVRVVAPEAAQTRVRSTPGGDLELVVHLSGPGGPVRWYKDGERLASQGRVQLEQAGARQVLRVQGARSGDAGEYLCDAPQDSRIFLVSVEEPLLVKLVSELTPLTVHEGDDATFRCEVSPPDADVTWLRNGAVVTPGPQVEMAQNGSSRILTLRGCQLGDAGTVTLRAGSTATSARLHVRETELLFLRRLQDVRAEEGQDVCLEVETGRVGAAGAVRWVRGGQPLPHDSRLSMAQDGHIHRLFIHGVILADQGTYGCESHHDRTLARLSVRPRQLRVLRPLEDVTISEGGSATFQLELSQEGVTGEWARGGVQLYPGPKCHIHSDGHRHRLVLNGLGLADSGCVSFTADSLRCAARLIVREVPVTIVRGPHDLEVTEGDTATFECELSQALADVTWEKDGNALTPSPRLRLQALGTRRLLQLRRCGPSDAGTYSCAVGTARAGPVRLTVRERTVAVLSELRSVSAREGDGATFECTVSEVETTGRWELGGRPLRPGARVRIRQEGKKHILVLSELRAEDAGEVRFQAGPAQSLALLEVEALPLQMCRHPPREKTVLVGRRAVLEVTVSRSGGHVCWLREGAELCPGDKYEMRSHGPTHSLVIHDVRPEDQGTYCCQAGQDSTHTRLLVEGN

Variants of: B1
Conditions: with titin_human TTN

Variant	effect of a mutation on the interaction
F17R	decreasing interaction
